Molecular target: T1, biotinylated monovalent EpCAM-Fc (human EpCAM ECD-Fc knob avi-his paired with Fc hole) (human, UniProt P01857 104-328 = IgG part, biotin on the avi tag (BirA co-expression))
T1 construct: also called monovalent EpCAM-Fc construct; huEPCAM-Fc-knob (avi-His) + Fc hole (wt)
Assay: SPR ProteOn XPR36 off-rate, biotinylated monovalent EpCAM-Fc on NLC chip, 50 nM supernatant

| Binder | koff [s⁻¹] |
| --- | --- |
| Monovalent EpCAM (GG01_VH x GG05_VL) (antibody, IgG1, V domains shown, one-armed hu IgG1 PG-LALA, VH/VL-crossed Fab on Fc hole plus empty Fc knob; from supernatant) VH: QVQLVQSGSELKKPGASVKVSCKASGYTFTNYGMNWVRQAPGQGLEWMGWINTYTGESTYAQGFTGRFVFSLDTSVSTAYLQISSLKAEDTAVYFCARFAIKGDYWGQGTLVTVSS VL: DIVMTQSPLSLPVTPGEPASISCRSSQGINNYLYWYLQKPGQSPQLLIYQMSNRASGVPDRFSGSGSGTDFTLKISRVEAEDVGVYYCAQNLEIPRTFGQGTKLEIK | 0.062 |
| Monovalent EpCAM (GG01_VH x GG06_VL) (antibody, IgG1, V domains shown, one-armed hu IgG1 PG-LALA, VH/VL-crossed Fab on Fc hole plus empty Fc knob; from supernatant) VH: QVQLVQSGSELKKPGASVKVSCKASGYTFTNYGMNWVRQAPGQGLEWMGWINTYTGESTYAQGFTGRFVFSLDTSVSTAYLQISSLKAEDTAVYFCARFAIKGDYWGQGTLVTVSS VL: DIQMTQSPSSLSASVGDRVTITCRASQSILHSQGITYLYWYQQKPGKAPKLLIYQMSNLQSGVPSRFSGSGSGTDFTLTISSLQPEDFATYYCAQNLEIPRTFGQGTKLEIK | 0.00412 |
| Monovalent EpCAM (GG02_VH x GG02_VL) (antibody, IgG1, V domains shown, one-armed hu IgG1 PG-LALA, VH/VL-crossed Fab on Fc hole plus empty Fc knob; from supernatant) VH: QVQLVQSGAEVKKPGASVKVSCKASGYTFTNYGMNWVRQAPGQRLEWMGWINTYTGESTYSQKFQGRVTITRDTSASTAYMELSSLRSEDTAVYFCARFAIKGDYWGQGTLVTVSS VL: DIVMTQSPDSLAVSLGERATINCKSSQSLLHSNGITYLYWYQQKPGQPPKLLIYQASTRESGVPDRFSGSGSGTDFTLTISSLQAEDVAVYYCAQNLEIPRTFGQGTKLEIK | 0.00227 |
| Monovalent EpCAM (GG03_VH x GG02_VL) (antibody, IgG1, V domains shown, one-armed hu IgG1 PG-LALA, VH/VL-crossed Fab on Fc hole plus empty Fc knob; from supernatant) VH: QVQLVQSGAEVKKPGASVKVSCKASGYTFTNYGMNWVRQAPGQRLEWMGWINTYTGESTYSQKFQGRVTITLDTSASTAYMELSSLRSEDTAVYFCARFAIKGDYWGQGTLVTVSS VL: DIVMTQSPDSLAVSLGERATINCKSSQSLLHSNGITYLYWYQQKPGQPPKLLIYQASTRESGVPDRFSGSGSGTDFTLTISSLQAEDVAVYYCAQNLEIPRTFGQGTKLEIK | 0.00301 |
| Monovalent EpCAM (GG02_VH x GG05_VL) (antibody, IgG1, V domains shown, one-armed hu IgG1 PG-LALA, VH/VL-crossed Fab on Fc hole plus empty Fc knob; from supernatant) VH: QVQLVQSGAEVKKPGASVKVSCKASGYTFTNYGMNWVRQAPGQRLEWMGWINTYTGESTYSQKFQGRVTITRDTSASTAYMELSSLRSEDTAVYFCARFAIKGDYWGQGTLVTVSS VL: DIVMTQSPLSLPVTPGEPASISCRSSQGINNYLYWYLQKPGQSPQLLIYQMSNRASGVPDRFSGSGSGTDFTLKISRVEAEDVGVYYCAQNLEIPRTFGQGTKLEIK | 0.00361 |
| Monovalent EpCAM (GG02_VH x GG07_VL) (antibody, IgG1, V domains shown, one-armed hu IgG1 PG-LALA, VH/VL-crossed Fab on Fc hole plus empty Fc knob; from supernatant) VH: QVQLVQSGAEVKKPGASVKVSCKASGYTFTNYGMNWVRQAPGQRLEWMGWINTYTGESTYSQKFQGRVTITRDTSASTAYMELSSLRSEDTAVYFCARFAIKGDYWGQGTLVTVSS VL: EIVLTQSPGTLSLSPGERATLSCRASQSINNYLYWYQQKPGQAPRLLIYQMSNRATGIPDRFSGSGSGTDFTLTISRLEPEDFAVYYCAQNLEIPRTFGQGTKLEIK | 0.00303 |

Further lines, results first:

| koff [s⁻¹] | Binder |
| --- | --- |
| 0.00665 | Monovalent EpCAM (GG06_VH x GG05_VL) (antibody, IgG1, V domains shown, one-armed hu IgG1 PG-LALA, VH/VL-crossed Fab on Fc hole plus empty Fc knob; from supernatant) VH: QVQLVQSGSELKKPGASVKVSCKASGYTFTNYGMNWVRQAPGQGLEWMGWINTYTGQSTYAQGFTGRFVFSLDTSVSTAYLQISSLKAEDTAVYFCARFAIKGDYWGQGTLVTVSS VL: DIVMTQSPLSLPVTPGEPASISCRSSQGINNYLYWYLQKPGQSPQLLIYQMSNRASGVPDRFSGSGSGTDFTLKISRVEAEDVGVYYCAQNLEIPRTFGQGTKLEIK |
| 0.00491 | Monovalent EpCAM (GG07_VH x GG05_VL) (antibody, IgG1, V domains shown, one-armed hu IgG1 PG-LALA, VH/VL-crossed Fab on Fc hole plus empty Fc knob; from supernatant) VH: QVQLVQSGSELKKPGASVKVSCKASGYTFTNYGMNWVRQAPGQGLEWMGWINTYTGESTYAQGFTGRFVFSLDTSVSTAYLQISSLKAEDTAVYFCARFARSGDYWGQGTLVTVSS VL: DIVMTQSPLSLPVTPGEPASISCRSSQGINNYLYWYLQKPGQSPQLLIYQMSNRASGVPDRFSGSGSGTDFTLKISRVEAEDVGVYYCAQNLEIPRTFGQGTKLEIK |
| 0.00303 | Monovalent EpCAM (GG06_VH x GG06_VL) (antibody, IgG1, V domains shown, one-armed hu IgG1 PG-LALA, VH/VL-crossed Fab on Fc hole plus empty Fc knob; from supernatant) VH: QVQLVQSGSELKKPGASVKVSCKASGYTFTNYGMNWVRQAPGQGLEWMGWINTYTGQSTYAQGFTGRFVFSLDTSVSTAYLQISSLKAEDTAVYFCARFAIKGDYWGQGTLVTVSS VL: DIQMTQSPSSLSASVGDRVTITCRASQSILHSQGITYLYWYQQKPGKAPKLLIYQMSNLQSGVPSRFSGSGSGTDFTLTISSLQPEDFATYYCAQNLEIPRTFGQGTKLEIK |
| 0.00142 | Monovalent EpCAM (GG07_VH x GG06_VL) (antibody, IgG1, V domains shown, one-armed hu IgG1 PG-LALA, VH/VL-crossed Fab on Fc hole plus empty Fc knob; from supernatant) VH: QVQLVQSGSELKKPGASVKVSCKASGYTFTNYGMNWVRQAPGQGLEWMGWINTYTGESTYAQGFTGRFVFSLDTSVSTAYLQISSLKAEDTAVYFCARFARSGDYWGQGTLVTVSS VL: DIQMTQSPSSLSASVGDRVTITCRASQSILHSQGITYLYWYQQKPGKAPKLLIYQMSNLQSGVPSRFSGSGSGTDFTLTISSLQPEDFATYYCAQNLEIPRTFGQGTKLEIK |
| 0.00483 | Monovalent EpCAM (GG03_VH x GG05_VL) (antibody, IgG1, V domains shown, one-armed hu IgG1 PG-LALA, VH/VL-crossed Fab on Fc hole plus empty Fc knob; from supernatant) VH: QVQLVQSGAEVKKPGASVKVSCKASGYTFTNYGMNWVRQAPGQRLEWMGWINTYTGESTYSQKFQGRVTITLDTSASTAYMELSSLRSEDTAVYFCARFAIKGDYWGQGTLVTVSS VL: DIVMTQSPLSLPVTPGEPASISCRSSQGINNYLYWYLQKPGQSPQLLIYQMSNRASGVPDRFSGSGSGTDFTLKISRVEAEDVGVYYCAQNLEIPRTFGQGTKLEIK |

Reference: patent US20240368309A1 (Hoffmann-La Roche, published 2024)
